Consider four molecules from US20250101129A1 (AJINOMOTO, published 2025).

This assay addresses T1, Fc protein of human IgG1 antibody (human, UniProt P01857-1 100-330 = IgG part, limits assumed).
T1 construct: domain: Fc; Immobilised on a CM5 chip by amine coupling at about 1400 RU; also called Fc region of an IgG1 antibody
As to the kind of experiment: SPR Biacore T200, 25 C, Fc of human IgG1 amine-coupled on CM5, peptide as analyte, single cycle kinetics. In general terms: In SPR one partner is held on a chip, and binding of the other changes the refractive index at the surface.

Method: The affinity between each polypeptide and the Fc region of an IgG1 antibody was evaluated by SPR measurement (Biacore T200 (GE Healthcare)). The measurement was performed at 25° C., and HBS-EP+ was used as the running buffer. The Fc protein of human IgG1 antibody, as the ligand, was diluted to 30 g/mL in sodium acetate buffer, pH 4.5 (GE Healthcare) and immobilized on the surface of a CM5 Sensor Chip (GE Healthcare) at approximately 1400 RU using the amine coupling method. The peptides were diluted to 100 nM in HBS-EP+ buffer containing 0.1% DMSO. The measurement was performed using the single cycle kinetics method, with an analyte injection time of 120 seconds, a flow rate of 30 L/min, and a dissociation time of 120 seconds. The obtained sensorgrams were fitted based on the affinity to calculate the dissociation constant (KD).

B1: QET-Fc3K-PA32-Z34CM (peptide)
chain: QETRGNCAYHKGQIIWCTYHGGAAPAAPAPAAPAAPAPAAPAAPAPAAPAAPAPGGFNMQCQRRFYEALHDPNLNEEQRNARIRSIREEC
modifications: C-terminal -NH2 as printed in the 1st table; N-terminal Gln designed to be pyroglutamylated
In the case of B1, binding was characterised by a dissociation constant (Kd) of 12.7 nM.

B2: QET-Z34CM-PA32-Fc3K (peptide)
chain: QETFNMQCQRRFYEALHDPNLNEEQRNARIRSIREECGGAAPAAPAPAAPAAPAPAAPAAPAPAAPAAPAPGGRGNCAYHKGQIIWCTYH
modifications: C-terminal -NH2 as printed in the 1st table; N-terminal Gln designed to be pyroglutamylated
B2: the Kd – broadly, the constant that tells how readily two partners part at equilibrium – was found to be 7.91 nM.

B3: QET-Fc3K-PA48-Z34CM (peptide)
chain: QETRGNCAYHKGQIIWCTYHGGAAPAAPAPAAPAAPAPAAPAAPAPAAPAAPAPAAPAAPAPAAPAAPAPGGFNMQCQRRFYEALHDPNLNEEQRNARIRSIREEC
modifications: C-terminal -NH2 as printed in the 1st table; N-terminal Gln designed to be pyroglutamylated
Turning to B3, the Kd is 8.48 nM.

B4: QET-Z34CM-PA48-Fc3K (peptide)
chain: QETFNMQCQRRFYEALHDPNLNEEQRNARIRSIREECGGAAPAAPAPAAPAAPAPAAPAAPAPAAPAAPAPAAPAAPAPAAPAAPAPGGRGNCAYHKGQIIWCTYH
modifications: C-terminal -NH2 as printed in the 1st table; N-terminal Gln designed to be pyroglutamylated
With B4, the Kd stood at 8.98 nM.
